B1: CA9hu-2 chimeric HC0LC0 (antibody, V domains shown)
VH: EVQLVETGGGLVQPKGSLKLSCAASGFTFNTNAMHWVRQAPGKGLEWVARIRSKSNNYTTYYADSVKDRFTISRDDSQSMLYLQMNNLKTEDTAMYYCVCGSWFAYWGQGTLVTVSA
VL: DIVMTQSPSSLAMSLGQKVTMSCKSSQSLLNSSNQKNYLAWFQQKPGQSPKLLVYFTSTRQSGVPDRFIGSGSGTDFTLTISSVQAEDLADYFCQQHYSIPLTFGAGTKLELK
notes: also called HC0LC0 (CA9hu-2)
B2: CA9hu-2_HC1LC5 (antibody, V domains shown)
VH: EVQLVESGGGLVQPGGSLKLSCAASGFTFNTNAMHWVRQASGKGLEWVGRIRSKSNNYTTYYADSVKDRFTISRDDSKNTAYLQMNSLKTEDTAVYYCVCGSWFAYWGQGTLVTVSS
VL: DIVMTQSPDSLAVSLGERATINCKSSQSLLNSSNQKNYLAWYQQKPGQPPKLLIYFTSTRQSGVPDRFSGSGSGTDFTLTISSLQAEDVAVYYCQQHYSIPLTFGQGTKLEIK
notes: Humanized from murine IV/18; also called HC1LC5 (CA9hu-2)
B3: CA9hu-2_HC5LC2 (antibody, V domains shown)
VH: EVQLVESGGGLVQPGGSLKLSCAASGFTFNTNAMHWVRQASGKGLEWVGRIRSKSNNYTTYYADSVKDRFTISRDDSKNTAYLQMNSLKTEDTAVYYCVCGSWFAYWGQGTTVTVSS
VL: DIVMTQSPDSLAVSLGERATINCKSSQSLLNSSNQKNYLAWFQQKPGQPPNLVIYFTSTRQSGVPDRFSGSGSGTDFTLTINSLQAEDVAVYFCQQHYSIPLTFGQGTQVEIK
notes: Humanized from murine IV/18; also called HC5LC2 (CA9hu-2)
B4: CA9hu-2_HC1LC4 (antibody, V domains shown)
VH: EVQLVESGGGLVQPGGSLKLSCAASGFTFNTNAMHWVRQASGKGLEWVGRIRSKSNNYTTYYADSVKDRFTISRDDSKNTAYLQMNSLKTEDTAVYYCVCGSWFAYWGQGTLVTVSS
VL: DIVMTQSPDSLAVSLGERATINCKSSQSLLNSSNQKNYLAWFQQKPGQPPKVLIYFTSTRQSGVPDRFTGSGSGTDFTLTISSLQAEDVAVYYCQQHYSIPLTFGQGTKLEIK
notes: Humanized from murine IV/18; also called HC1LC4 (CA9hu-2)
B5: CA9hu-2_HC2LC4 (antibody, V domains shown)
VH: EVQLVESGGGLVQPGGSLKLSCAASGFTFNTNAMHWVRQASGKGLEWVGRIRSKSNNYTTYYADSVKDRFTISRDDSKSTAYLQMNSLKTEDTAVYYCVCGSWFAYWGQGTLVTVSS
VL: DIVMTQSPDSLAVSLGERATINCKSSQSLLNSSNQKNYLAWFQQKPGQPPKVLIYFTSTRQSGVPDRFTGSGSGTDFTLTISSLQAEDVAVYYCQQHYSIPLTFGQGTKLEIK
notes: Humanized from murine IV/18; also called HC2LC4 (CA9hu-2)
B6: CA9hu-2_HC2LC3 (antibody, V domains shown)
VH: EVQLVESGGGLVQPGGSLKLSCAASGFTFNTNAMHWVRQASGKGLEWVGRIRSKSNNYTTYYADSVKDRFTISRDDSKSTAYLQMNSLKTEDTAVYYCVCGSWFAYWGQGTLVTVSS
VL: DIQMTQSPDSLAVSLGERATINCKSSQSLLNSSNQKNYLAWYQQKPGQPPKLLIYFTSTRQSGVPDRFSGSGSGTDFTLTISSLQAEDVAVYFCQQHYSIPLTFGQGTKVEIK
notes: Humanized from murine IV/18; also called HC2LC3 (CA9hu-2)
B7: CA9hu-2_HC2LC5 (antibody, V domains shown)
VH: EVQLVESGGGLVQPGGSLKLSCAASGFTFNTNAMHWVRQASGKGLEWVGRIRSKSNNYTTYYADSVKDRFTISRDDSKSTAYLQMNSLKTEDTAVYYCVCGSWFAYWGQGTLVTVSS
VL: DIVMTQSPDSLAVSLGERATINCKSSQSLLNSSNQKNYLAWYQQKPGQPPKLLIYFTSTRQSGVPDRFSGSGSGTDFTLTISSLQAEDVAVYYCQQHYSIPLTFGQGTKLEIK
notes: Humanized from murine IV/18; also called HC2LC5 (CA9hu-2)
B8: CA9hu-2_HC4LC1 (antibody, V domains shown)
VH: EVQLVESGGGVVQPGRSLRLSCAASGFTFNTNAMHWVRQAPGKGLEWVARIRSKSNNYTTYYADSVKDRFTISRDNSKNTLYLQMNSLRAEDTAVYYCVCGSWFAYWGQGTLVTVSS
VL: DVVMTQSPDSLAVSLGERVTINCKSSQSLLNSSNQKNYLAWYQQKPGQSPKLLIYFTSTRQSGVPDRFSGSGSGTDFTLTISSLQAEDVAVYYCQQHYSIPLTFGQGTKLEIK
notes: Humanized from murine IV/18; also called HC4LC1 (CA9hu-2)
B9: CA9hu-2_HC1LC1 (antibody, V domains shown)
VH: EVQLVESGGGLVQPGGSLKLSCAASGFTFNTNAMHWVRQASGKGLEWVGRIRSKSNNYTTYYADSVKDRFTISRDDSKNTAYLQMNSLKTEDTAVYYCVCGSWFAYWGQGTLVTVSS
VL: DVVMTQSPDSLAVSLGERVTINCKSSQSLLNSSNQKNYLAWYQQKPGQSPKLLIYFTSTRQSGVPDRFSGSGSGTDFTLTISSLQAEDVAVYYCQQHYSIPLTFGQGTKLEIK
notes: Humanized from murine IV/18; also called HC1LC1 (CA9hu-2)
B10: CA9hu-2_HC4LC3 (antibody, V domains shown)
VH: EVQLVESGGGVVQPGRSLRLSCAASGFTFNTNAMHWVRQAPGKGLEWVARIRSKSNNYTTYYADSVKDRFTISRDNSKNTLYLQMNSLRAEDTAVYYCVCGSWFAYWGQGTLVTVSS
VL: DIQMTQSPDSLAVSLGERATINCKSSQSLLNSSNQKNYLAWYQQKPGQPPKLLIYFTSTRQSGVPDRFSGSGSGTDFTLTISSLQAEDVAVYFCQQHYSIPLTFGQGTKVEIK
notes: Humanized from murine IV/18; also called HC4LC3 (CA9hu-2)
B11: CA9hu-2_HC3LC5 (antibody, V domains shown)
VH: QVQLVESGGGVVQPGGSLRLSCAASGFTFNTNAMHWVRQAPGRGLEWVARIRSKSNNYTTYYADSVKDRFTISRDNSKNTLYLQVNSLRAEDTAVYYCVCGSWFAYWGQGTLVTVSS
VL: DIVMTQSPDSLAVSLGERATINCKSSQSLLNSSNQKNYLAWYQQKPGQPPKLLIYFTSTRQSGVPDRFSGSGSGTDFTLTISSLQAEDVAVYYCQQHYSIPLTFGQGTKLEIK
notes: Humanized from murine IV/18; also called HC3LC5 (CA9hu-2)
B12: CA9hu-2_HC1LC2 (antibody, V domains shown)
VH: EVQLVESGGGLVQPGGSLKLSCAASGFTFNTNAMHWVRQASGKGLEWVGRIRSKSNNYTTYYADSVKDRFTISRDDSKNTAYLQMNSLKTEDTAVYYCVCGSWFAYWGQGTLVTVSS
VL: DIVMTQSPDSLAVSLGERATINCKSSQSLLNSSNQKNYLAWFQQKPGQPPNLVIYFTSTRQSGVPDRFSGSGSGTDFTLTINSLQAEDVAVYFCQQHYSIPLTFGQGTQVEIK
notes: Humanized from murine IV/18; also called HC1LC2 (CA9hu-2)
B13: CA9hu-2_HC5LC1 (antibody, V domains shown)
VH: EVQLVESGGGLVQPGGSLKLSCAASGFTFNTNAMHWVRQASGKGLEWVGRIRSKSNNYTTYYADSVKDRFTISRDDSKNTAYLQMNSLKTEDTAVYYCVCGSWFAYWGQGTTVTVSS
VL: DVVMTQSPDSLAVSLGERVTINCKSSQSLLNSSNQKNYLAWYQQKPGQSPKLLIYFTSTRQSGVPDRFSGSGSGTDFTLTISSLQAEDVAVYYCQQHYSIPLTFGQGTKLEIK
notes: Humanized from murine IV/18; also called HC5LC1 (CA9hu-2)
B14: CA9hu-2_HC4LC4 (antibody, V domains shown)
VH: EVQLVESGGGVVQPGRSLRLSCAASGFTFNTNAMHWVRQAPGKGLEWVARIRSKSNNYTTYYADSVKDRFTISRDNSKNTLYLQMNSLRAEDTAVYYCVCGSWFAYWGQGTLVTVSS
VL: DIVMTQSPDSLAVSLGERATINCKSSQSLLNSSNQKNYLAWFQQKPGQPPKVLIYFTSTRQSGVPDRFTGSGSGTDFTLTISSLQAEDVAVYYCQQHYSIPLTFGQGTKLEIK
notes: Humanized from murine IV/18; also called HC4LC4 (CA9hu-2)
B15: CA9hu-2_HC1LC3 (antibody, V domains shown)
VH: EVQLVESGGGLVQPGGSLKLSCAASGFTFNTNAMHWVRQASGKGLEWVGRIRSKSNNYTTYYADSVKDRFTISRDDSKNTAYLQMNSLKTEDTAVYYCVCGSWFAYWGQGTLVTVSS
VL: DIQMTQSPDSLAVSLGERATINCKSSQSLLNSSNQKNYLAWYQQKPGQPPKLLIYFTSTRQSGVPDRFSGSGSGTDFTLTISSLQAEDVAVYFCQQHYSIPLTFGQGTKVEIK
notes: Humanized from murine IV/18; also called HC1LC3 (CA9hu-2)
B16: CA9hu-2_HC2LC1 (antibody, V domains shown)
VH: EVQLVESGGGLVQPGGSLKLSCAASGFTFNTNAMHWVRQASGKGLEWVGRIRSKSNNYTTYYADSVKDRFTISRDDSKSTAYLQMNSLKTEDTAVYYCVCGSWFAYWGQGTLVTVSS
VL: DVVMTQSPDSLAVSLGERVTINCKSSQSLLNSSNQKNYLAWYQQKPGQSPKLLIYFTSTRQSGVPDRFSGSGSGTDFTLTISSLQAEDVAVYYCQQHYSIPLTFGQGTKLEIK
notes: Humanized from murine IV/18; also called HC2LC1 (CA9hu-2)
B17: CA9hu-2_HC2LC2 (antibody, V domains shown)
VH: EVQLVESGGGLVQPGGSLKLSCAASGFTFNTNAMHWVRQASGKGLEWVGRIRSKSNNYTTYYADSVKDRFTISRDDSKSTAYLQMNSLKTEDTAVYYCVCGSWFAYWGQGTLVTVSS
VL: DIVMTQSPDSLAVSLGERATINCKSSQSLLNSSNQKNYLAWFQQKPGQPPNLVIYFTSTRQSGVPDRFSGSGSGTDFTLTINSLQAEDVAVYFCQQHYSIPLTFGQGTQVEIK
notes: Humanized from murine IV/18; also called HC2LC2 (CA9hu-2)
B18: CA9hu-2_HC4LC5 (antibody, V domains shown)
VH: EVQLVESGGGVVQPGRSLRLSCAASGFTFNTNAMHWVRQAPGKGLEWVARIRSKSNNYTTYYADSVKDRFTISRDNSKNTLYLQMNSLRAEDTAVYYCVCGSWFAYWGQGTLVTVSS
VL: DIVMTQSPDSLAVSLGERATINCKSSQSLLNSSNQKNYLAWYQQKPGQPPKLLIYFTSTRQSGVPDRFSGSGSGTDFTLTISSLQAEDVAVYYCQQHYSIPLTFGQGTKLEIK
notes: Humanized from murine IV/18; also called HC4LC5 (CA9hu-2)

How the values were obtained:
[1] = biological target: recombinant human CA IX (human, UniProt Q16790 38-414); assay: SPR (Biacore T200), antibody captured on CM5 chip, rh CA IX in flow, 25 C
Procedure: In order to determinate the antigen-binding affinity of humanized variants, measurements of affinity constant (KD) for antibodies binding to CA IX were performed by SPR using a Biacore 2000 (T200 in case of CA9hu-2) instrument (GE Healthcare, Piscataway, NJ USA). Each humanized antibody variant was captured on the CM5 sensor chip and recombinant human CA IX (rh CA IX; 42 kDa; R&D Systems, Inc., Minneapolis MN, USA) protein as an antigen was added to the buffer flowing over the chip. The setting details of quantitative interaction analysis between humanized antibodies and rh CA IX were as follows: flow rate 30 μl/min; analysis temperature 25° C.; analysis buffer (10mM HEPES pH 7.4, 150 mM NaCl, […], 0.05% Tween 20). Results from SPR analysis are expressed as the equilibrium dissociation constant (KD) (Table 7).

[2] = biological target: CA IX expressed by cells (C-33a_CA IX transfectants; hypoxic BT-20, JIMT-1, 8-MG-BA and 42-MG-BA cells) (human, UniProt Q16790 38-459); assay: cell-based or functional assay

Binder | Kd [1] [nM] | ADCC reporter luminescence, C-33a_CA IX against C-33a_neo cells [2] [times]
B1 | 13.1 | 
B2 | 71.3 | 2
B3 | 105 | 2
B4 | 74.9 | 2
B5 | 60.1 | 2
B6 | 98.3 | 2
B7 | 60.5 | 2
B8 | 39.6 | 2
B9 | 44 | 2
B10 | 44.2 | 2
B11 | 54.3 | 2
B12 | 56.1 | 2
B13 | 69.8 | 2
B14 | 74.6 | 2
B15 | 70.5 | 2
B16 | 53.9 | 2
B17 | 87.7 | 2
B18 | 41.9 | 2

From US20240150490A1 (MABPRO A S, published 2024)
